Columns and labels:
[1] = Characterization of PEG-insulin PLGA microspheres (coreload, encapsulation efficiency by RP-HPLC); assay type: physicochemical; details: PLGA 45:55 L:G, 0.15 dL/g, acid end group microspheres, nominal core load 25 wt %
Procedure: PEG-insulin F5000 (50 mg) was dissolved in 1 ml methylene chloride. The solution was added to a volume of 1 ml methylene chloride containing 150 mg PLGA 45:55 (lac:gly), 0.15 dl/g IV with acid end groups. The methylene chloride solution was added to 5 ml water containing 1% poly(vinyl alcohol) in a 15 ml centrifuge tube and vortex-mixed to form an emulsion. The emulsion was added to 100 ml of water containing 0.3% poly(vinyl alcohol) and stirred for 3 hrs to evaporate the methylene chloride. The hardened microspheres were collected by vacuum filtration on Whatman #1 filter paper and dried.
The PEG-insulin microspheres' surface morphology and particle size distribution were examined by scanning electron microscope and laser-light scattering particle size analysis, respectively. Analytical reverse phase HPLC was used to quantify the amount of PEG-insulin conjugate encapsulated within the polymer microspheres. Prior to HPLC analysis, a measured quantity of microspheres was dissolved in a volume of acetonitrile, and an equivalent volume of 0.1% TFA in water was added to precipitate the polymer and extract the conjugate into aqueous solution. K2000, K5000, K10000, K20000 and F5000-A were also encapsulated using this method. The results of these tests are collected in Table 1, which lists the PEG-insulin content in % (w/w) of the total microsphere and the encapsulation efficiency, defined as weight of PEG-insulin encapsulated/weight of PEG-insulin added initially. Relatively high drug content up to 28.3% and encapsulation efficiency, up to 100%, were achieved, making the product clinically useful due to reduced total dose required, and commercially attractive due to low losses of starting material. In addition, microspheres were prepared using polymers of varying lactide:glycolide ratios (50:[…]), molecular weights (6.5-24 kDa), intrinsic viscosities (0.09-0.27 dL/g), or terminal ester groups (methyl and lauryl), with a wide range of drug loadings (5-35 wt %).
Microspheres were prepared with PLGA (45:55 L:G, 0.15 dL/g, acid end group) to a nominal core load of 25 wt %.

[2] = In vitro release of PEG-insulin from PLGA microspheres; assay type: physicochemical; details: PLGA 45:55 microspheres, nominal core load 25 wt %
Procedure: A sample of 15 mg […] PEG-insulin microspheres (14.1% drug content, PLGA 45:55; 0.15 dl/g IV, acid end groups) was suspended in 1.5 ml phosphate buffered saline (pH 7.4, 0.02% sodium azide and 0.02% Tween20) and incubated at 37° C. The supernatant was withdrawn at intervals and analyzed by RP HPLC for released PEG-insulin. The buffer was replaced with fresh PBS and the incubation continued. The data were analyzed for cumulative release as a function of incubation time (FIG. 4). Less than 1.0% of the PEG-insulin is released in the first day and over 95% is released within 18 days. The low “burst” release, high total release and duration over approximately a two-week period are highly desired features of a sustained release insulin formulation.

[3] = test system: fasted Sprague-Dawley rats; assay: Pharmacodynamics of PEG-insulin conjugates after intravenous injection to normal rats (blood glucose); assay type: in vivo, rat; details: 0.3 IU/kg equivalent; for suppression of glucose levels relative to normal human insulin: tail vein injection, fasted Sprague-Dawley rats, 6 hrs, vs Humulin R
Procedure: The effects of PEGylation on insulin pharmacodynamics were investigated. These studies were conducted to evaluate the in vivo biological activity (ability to lower serum glucose) of conjugate formulations containing PEG-insulins differing in site of substitution (positional isomers) or PEG molecular weight, relative to a commercially available insulin formulation (Humulin R, Lilly). Blood glucose levels were measured for fasted Sprague-Dawley rats after intravenous administration of F5000, K2000, K5000, K10000, or HumulinR®. The equivalent of 0.3 IU/kg (based on protein concentration and corrected for the weight of the PEG as appropriate; assumes 25 IU/mg protein) were dissolved in normal saline and administered by tail vein injection; N=6 per group. Blood was drawn before test article injection and at intervals over a period of 6 hrs post injection. Serum was isolated by standard procedure and glucose levels were measured using an Accucheck Advantage (Boeringer Ingelheim) glucose meter.

liver enzymes = details: cited from earlier work
rabbits = details: calculated on a molar basis; cited from earlier work

Substance | Coreload [1] [wt %] | Encapsulation Efficiency [1] [wt %] | In vitro release, Initial burst [2] [%] | In vitro release, Total [2] [%] | suppression of glucose levels relative to normal human insulin [3] | duration of action ([3]; intravenous, normal rats) | stability to liver enzymes compared with native insulin (liver enzymes) | insulin effect on reduction of blood sugar levels (rabbits) [%]
F5000-A: probably F5000 made with mPEG(5000)-aldehyde, secondary amine bond at PheB1 (Example 5) [Conjugate F5000-A] | 21 | 85 | 20 | 97 |  |  |  | 
K2000: linear mPEG-SPA 2000 Da attached to the amino group of LysB29 of insulin [Conjugate K2000] | 24 | 96 | 6 |  | as effective in suppressing the glucose levels in normal rats as equivalent doses of normal human insulin |  |  | 
K5000: PEG-5000 linked to insulin B chain Lys29 [Conjugate K5000] | 24 | 96 | 2 |  | as effective in suppressing the glucose levels in normal rats as equivalent doses of normal human insulin |  |  | 
K10000: branched mPEG2-SPA 10,000 Da attached to the amino group of LysB29 of insulin [Conjugate K10000] | 19 | 76 | 80 |  | did not reduce glucose levels to the same extent as the other test articles | exceed 6 hours |  | 
K20000: branched mPEG2-SPA 20,000 Da attached to the amino group of LysB29 of insulin [Conjugate K20000] | 14 | 56 | 80 |  |  |  |  | 
mPEG(1500)-B1-insulin: prior-art site-specific PEG 1500 conjugate of insulin at residue PheB1 (Obermeier; Geiger; Ehrat) |  |  |  |  |  |  | far more stable (to liver enzymes) | 100
mPEG(5000)-PheB1-insulin [Conjugate F5000] | 24 | 96 | 2 |  | as effective in suppressing the glucose levels in normal rats as equivalent doses of normal human insulin |  |  | 
